From publication PMC4716839

Experiments:
[1] = biological target: Rpa heterotrimer (Rpa70/Rpa32/Rpa14) (Mus musculus) (UniProt Q8VEE4+Q62193+Q9CQ71); experiment: bead pull-down; conditions: Dna2 D278A added after Rpa loading; EMSA: 20 mM Tris-HCl pH 8.0, 80 mM NaCl, 0.3 mM TCEP, 0.2 mg/mL BSA, 2% glycerol, on ice 30 min, 0.075 or 0.3 nM 32P-DNA; 4% native PAGE, 1x TB, 4 C
[2] = biological target: mouse Rpa heterotrimer (Rpa70, Rpa32, Rpa14) (mouse) (UniProt Q8VEE4)
Chain of mouse Rpa heterotrimer (Rpa70, Rpa32, Rpa14) (mouse) (Q8VEE4 whole entry, chain 1 of 3): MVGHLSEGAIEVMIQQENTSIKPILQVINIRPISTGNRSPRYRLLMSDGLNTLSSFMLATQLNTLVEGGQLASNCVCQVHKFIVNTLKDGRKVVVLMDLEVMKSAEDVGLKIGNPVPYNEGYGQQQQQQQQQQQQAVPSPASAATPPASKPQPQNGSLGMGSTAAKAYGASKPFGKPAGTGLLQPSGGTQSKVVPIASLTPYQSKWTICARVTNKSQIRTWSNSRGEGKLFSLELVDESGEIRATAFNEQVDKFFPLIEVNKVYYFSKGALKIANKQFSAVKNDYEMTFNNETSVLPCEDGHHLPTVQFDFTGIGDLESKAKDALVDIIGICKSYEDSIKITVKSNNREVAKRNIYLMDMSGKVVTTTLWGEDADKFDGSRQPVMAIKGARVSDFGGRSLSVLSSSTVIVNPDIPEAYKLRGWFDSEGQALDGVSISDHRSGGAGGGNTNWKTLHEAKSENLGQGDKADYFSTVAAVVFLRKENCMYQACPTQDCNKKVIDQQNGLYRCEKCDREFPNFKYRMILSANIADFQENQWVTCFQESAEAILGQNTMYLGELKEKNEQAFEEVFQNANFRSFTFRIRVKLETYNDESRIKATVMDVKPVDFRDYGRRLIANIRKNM
Chain of mouse Rpa heterotrimer (Rpa70, Rpa32, Rpa14) (mouse) (Q62193 whole entry, chain 2 of 3, further chain): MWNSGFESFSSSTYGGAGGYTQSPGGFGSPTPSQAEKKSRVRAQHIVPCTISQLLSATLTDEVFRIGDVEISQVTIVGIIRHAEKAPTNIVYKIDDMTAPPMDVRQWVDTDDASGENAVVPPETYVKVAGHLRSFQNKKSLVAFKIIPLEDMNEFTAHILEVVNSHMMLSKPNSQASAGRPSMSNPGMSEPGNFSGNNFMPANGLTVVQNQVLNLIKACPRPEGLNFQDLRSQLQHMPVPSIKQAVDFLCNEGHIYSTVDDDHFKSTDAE
Chain of mouse Rpa heterotrimer (Rpa70, Rpa32, Rpa14) (mouse) (Q9CQ71 whole entry, chain 3 of 3, further chain): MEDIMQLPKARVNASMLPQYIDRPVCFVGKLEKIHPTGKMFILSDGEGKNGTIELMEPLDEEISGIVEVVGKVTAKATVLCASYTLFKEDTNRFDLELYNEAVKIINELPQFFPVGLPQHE

Chain of Rpa heterotrimer (Rpa70/Rpa32/Rpa14) (Mus musculus) (Q8VEE4 whole entry, chain 1 of 3): as the sequence (Q8VEE4 whole entry, chain 1 of 3) above
Chain of Rpa heterotrimer (Rpa70/Rpa32/Rpa14) (Mus musculus) (Q62193 whole entry, chain 2 of 3): as the sequence (Q62193 whole entry, chain 2 of 3, further chain) above
Chain of Rpa heterotrimer (Rpa70/Rpa32/Rpa14) (Mus musculus) (Q9CQ71 whole entry, chain 3 of 3): as the sequence (Q9CQ71 whole entry, chain 3 of 3, further chain) above
Chain of α1-deleted mouse Dna2 (Q6ZQJ5 1-1056, stated change not applied): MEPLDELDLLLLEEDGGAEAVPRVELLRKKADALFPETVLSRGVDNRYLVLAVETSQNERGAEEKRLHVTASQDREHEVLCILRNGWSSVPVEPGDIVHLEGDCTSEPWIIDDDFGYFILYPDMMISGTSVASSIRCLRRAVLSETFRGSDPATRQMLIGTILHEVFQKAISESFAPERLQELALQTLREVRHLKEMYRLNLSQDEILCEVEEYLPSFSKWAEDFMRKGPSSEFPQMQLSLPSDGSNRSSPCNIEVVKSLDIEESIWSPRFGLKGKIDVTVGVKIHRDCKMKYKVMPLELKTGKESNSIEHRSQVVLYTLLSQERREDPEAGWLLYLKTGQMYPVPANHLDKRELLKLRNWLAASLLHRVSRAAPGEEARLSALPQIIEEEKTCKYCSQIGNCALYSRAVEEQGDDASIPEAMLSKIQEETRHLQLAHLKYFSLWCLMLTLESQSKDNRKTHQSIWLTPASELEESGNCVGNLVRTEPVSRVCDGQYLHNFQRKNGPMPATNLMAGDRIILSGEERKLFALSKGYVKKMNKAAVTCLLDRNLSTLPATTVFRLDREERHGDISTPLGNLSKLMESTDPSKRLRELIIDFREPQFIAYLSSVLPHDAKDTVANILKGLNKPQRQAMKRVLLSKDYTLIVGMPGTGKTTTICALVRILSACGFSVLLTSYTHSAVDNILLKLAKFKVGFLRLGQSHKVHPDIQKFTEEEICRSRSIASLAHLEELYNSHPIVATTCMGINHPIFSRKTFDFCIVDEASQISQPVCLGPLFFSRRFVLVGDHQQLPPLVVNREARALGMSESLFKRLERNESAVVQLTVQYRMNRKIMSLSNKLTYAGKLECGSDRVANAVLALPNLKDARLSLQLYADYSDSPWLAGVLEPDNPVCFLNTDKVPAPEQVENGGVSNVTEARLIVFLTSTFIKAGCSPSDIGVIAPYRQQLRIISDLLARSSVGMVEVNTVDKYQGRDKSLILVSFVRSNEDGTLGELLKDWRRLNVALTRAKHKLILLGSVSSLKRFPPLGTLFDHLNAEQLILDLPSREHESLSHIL

nuclease activity: cleavage of the Rpa-coated 5’ stem-loop overhang substrate 5’SL24 (15 nM, 15 nM Rpa), fold reduction compared to intact Dna2 [2] [fold] | Substance | binding signal (% reduction of bound Rpa by Dna2 D278A) [1]
– | 5'-(dT)26 overhang DNA, biotinylated | 30
2 | α1-deleted mouse Dna2 (from UniProt Q6ZQJ5 1-1056) (enzyme) | –
– | 3'-(dT)26 overhang DNA, biotinylated | 5
